± gives the standard deviation of the averaged measurements.

Sequences and labels used below:
B1: library; a variant is named by its letters at X, in order (parent)
chain: MNIQIGELAKRTACPVVTIRFYEQEGLLPPPGRSRGNFRLYGEEHVERLQFIRHCRSLDMPLSDVRTLLSYRKRPDQDCGEVXMLLDEHIRQVESRIGALLELKHHLVELREACSGARPAQSCGILQXLSXCVCXTRGTTAHXSD

Data set [1] covers variants of B1. The experiment in a line: sfGFP reporter fluorescence (15 h) (µM FITC); higher = higher leak. Particulars: library round: Round 2; ligand: none. As to the method: (§1)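 Cell-free biosensing: 1 µL Echo-assembled CFE reactions with linear PbrR variant templates (5 nM) and pPbrR-sfGFP reporter, with 1 µM Pb, 30 µM Zn or no ligand; endpoint sfGFP fluorescence after 15 h at 30 °C calibrated as µM FITC. Round 2 ML-predicted PbrR mutants; up to 3 biological replicates.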

The variants in data set [2] derive from B1. The experiment in a line: sfGFP reporter fluorescence (15 h) (µM FITC); higher = stronger transcriptional activation. Particulars: library round: Round 2. As to the method: as §1

Turning to MNIQIGELAKRTACPVVTIRFYEQEGLLPPPGRSRGNFRLYGEEHVERLQFIRHCRSLDMPLSDVRTLLSYRKRPDQDCGEITMLLDEHIRQVESRIGALLELKHHLVELREACSGARPAQSCGILQGISDCVCDTRGTTAHYSD [TGDDY V82I L129I], the sfGFP reporter fluorescence in data set [1] was 0.0454 ± 0.0012; in data set [2] (ligand: 1 µM Pb), 0.0463 ± 0.00051; in data set [2] (ligand: 30 µM Zn) it was 0.0601 ± 0.013.

As for MNIQIGELAKRTACPVVTIRFYEQEGLLPPPGRSRGNFRLYGEEHVERLQFIRHCRSLDMPLSTVRTLLSYRKRPDQDCGEVNMLLDAHIRQVESRIGALLELKHHLVELREACSGARPAQSCGILQGLSDCVCRTRGTTAHPSD [NGDRP D64T E88A], the sfGFP reporter fluorescence was 0.369 ± 0.048 in data set [1], 0.499 ± 0.14 in data set [2] (ligand: 1 µM Pb) and 3.13 ± 0.29 in data set [2] (ligand: 30 µM Zn).

With MNIQIGELAKRTACPVVTIRFYEQEGLLPPPGRSRGNFRLYGEEHVERLQFIRHCRSLDMPLSDVRTLLSYRKRPDQDCGEVSMLLDEHIRQVESRIGALLELKHHLLELREACSGARPAQSCGILQGLSDCVCDTRGTTAHWSD [SGDDW V108L], the sfGFP reporter fluorescence in data set [1] turned out to be 0.0515 ± 0.0023; in data set [2] (ligand: 1 µM Pb), 0.0672 ± 0.0033; in data set [2] (ligand: 30 µM Zn), 0.247 ± 0.031.

For the variant MNIQIGELAKRTACPVVTIRFYEQEGLLPPPGRSRGNFRLYGEEHVERLQFIRHCRSLDMNLSAVRTLLSYRKRPDQDCGEVNMLLDEHIRQVESRIGALLELKHHLVELREACSGARPAQSCGILQGLSDCVCRTRGTTAHPSD [NGDRP P61N D64A], the sfGFP reporter fluorescence in data set [1] turned out to be 0.111 ± 0.007; in data set [2] (ligand: 1 µM Pb) it was 0.221 ± 0.0096; in data set [2] (ligand: 30 µM Zn), 1.54 ± 0.25.

On to MNIQIGELAKRTACPVVTIRFYEQEGLLPPPGRSRGNFRLYGEEHVERLQFIRHCRSLDMPLSDVRTLLSYRKRPDQDCGEVTMLLDEHIRQVESRIGALLELKHHLVLLREACSGARPAQSCGILQGLSDCVCPTRGTTAHRSD [TGDPR E109L], for which the sfGFP reporter fluorescence in data set [1] came to 0.063 ± 0.0052; in data set [2] (ligand: 1 µM Pb), 0.114 ± 0.0072; in data set [2] (ligand: 30 µM Zn), 0.346 ± 0.039.

For MNIQIGELAKRTACPVVTIRFYEQEGLLPPPGRSRGNFRLYGEEHVERLQFIRHCRSLDMPLSDVRTLLSYRKQPDQDCGEVNMLLDEHIRQVESRIGALLELKHHLVELREACSGARPAQSCGILQGLSDCVCDTRATTAHWSD [NGDDW R74Q G138A], the sfGFP reporter fluorescence in data set [1] turned out to be 0.0503 ± 0.0034; in data set [2] (ligand: 1 µM Pb) it was 0.05902 ± 0.00051; in data set [2] (ligand: 30 µM Zn), 0.58 ± 0.017.

Take MNIQIGELAKRTACPVVTIRFYEQEGLLPPPGRSRGNFRLYGEEHVERLQFIRHCRSLDMPLSDVRTLLSYRKRPDQDCGEVTMLLDEHIRQVESRIGALLELKHHLVELREACSGARPAQSCGIIQGLSDCVCDTRGTTAHWSD [TGDDW L126I]: the sfGFP reporter fluorescence in data set [1] came out at 0.0487 ± 0.0018; in data set [2] (ligand: 1 µM Pb), 0.04581 ± 0.00039; in data set [2] (ligand: 30 µM Zn), 0.0773 ± 0.00089.

As for MNIQIGELAKRTACPVVTIRFYEQEGLLPPPGRSRGNFRLYGEEHVERLQFIRHCRSLDMPLSDVRTLLSYRKRPDQDCGEVTMLLDEHIRQVESRIGALLELKHHLLELREACSGARPAQSCGILQGLSDCVCRTRGTTAHPSD [TGDRP V108L], the sfGFP reporter fluorescence is 0.0448 ± 0.0017 in data set [1], 0.0788 ± 0.0022 in data set [2] (ligand: 1 µM Pb) and 0.327 ± 0.012 in data set [2] (ligand: 30 µM Zn).

For the variant MNIQIGELAKRTACPVVTIRFYEQEGLLPPPGRSRGNFRLYGEEHVERLQFIRHCRSLDMPLSDVRTLLSYRKRPDQDCGEVNMLLDEHIRQVESRIGALLELKHHLVEIREACGGARPAQSCGILQGLSDCVCDTRGTTAHWSD [NGDDW L110I S115G], the sfGFP reporter fluorescence worked out at 0.0528 ± 0.0019 in data set [1], 0.0476 ± 0.0019 in data set [2] (ligand: 1 µM Pb) and 0.325 ± 0.019 in data set [2] (ligand: 30 µM Zn).

For the variant MNIQIGELAKRTACPVVTIRFYEQEGLLPPPGRSRGNFRLYGEEHVERLQFIRHCRSLDMPLSDVRTLLSYRKRPDQDCGEVTMLLDEHIRQVESRIGALLELKHHCVELREACSGARPAQSCGILQGLSDCVCRTRGTTAHPSD [TGDRP L107C], the sfGFP reporter fluorescence in data set [1] is 0.176 ± 0.016; in data set [2] (ligand: 1 µM Pb), 1.17 ± 0.063; in data set [2] (ligand: 30 µM Zn), 2.94 ± 0.2.

In the case of MNIQIGELAKRTACPVVTIRFYEQEGLLPPPGRSRGNFRLYGEEHVERLQFIRHCRSLDMPLSDVRTLLSYRKRPDQDCGEVNALLDEHIRQVESRIGALLELKHHLVELAEACSGARPAQSCGILQGLSDCVCPTRGTTAHPSD [NGDPP M84A R111A], the sfGFP reporter fluorescence was 0.0671 ± 0.0045 in data set [1], 0.0854 ± 0.013 in data set [2] (ligand: 1 µM Pb) and 0.919 ± 0.12 in data set [2] (ligand: 30 µM Zn).

Regarding MNIQIGELAKRTACPVVTIRFYEQEGLLPPPGRSRGNFRLYGEEHVERLQFIRHCRSLDMPLSDVRTLLSYRKRPDQDCGEVTMLLDEHIRQVESRIGALLELKHHLVELRIACSGARPAQSCGILQGLSDCVCDTRGTTAHYSD [TGDDY E112I], the sfGFP reporter fluorescence in data set [1] is 0.0493 ± 0.0015; in data set [2] (ligand: 1 µM Pb), 0.0522 ± 0.0014; in data set [2] (ligand: 30 µM Zn), 0.076 ± 0.0028.

As to MNIQIGELAKRTACPVVTIRFYEQEGLLPPPGRSRGNFRLYGEEHVERLQFIRHCRSLDMPLSDVRTLLSYRKRPDQDCGEVNMLLDEHIRQVESRIGALLELKHHLVELREACSGARPAQSCSLLQGLSDCVCPTRGTTAHPSD [NGDPP G124S I125L], the results for the sfGFP reporter fluorescence in data set [1], in data set [2] (ligand: 1 µM Pb) and in data set [2] (ligand: 30 µM Zn) were 0.0484 ± 0.0015, 0.0455 ± 0.0014 and 0.0506 ± 0.001, respectively.

For MNIQIGELAKRTACPVVTIRFYEQEGLLPPPGRSRGNFRLYGEEHVERLQFIRHCRSLDMPLSDVRTLLSYRKRPDQDCGEVTMLLDEHIRQVESRIGALLELKHHLVELREACSGARPAQSCGLLQGLSDCVCDTRGTTAHYSD [TGDDY I125L], the sfGFP reporter fluorescence is 0.0486 ± 0.0014 in data set [1], 0.0429 ± 0.0049 in data set [2] (ligand: 1 µM Pb) and 0.0494 ± 0.0015 in data set [2] (ligand: 30 µM Zn).

The record behind these values is the supplement of paper PMC12783771.
